For this test, the target named is T1, recombinant P. falciparum 3D7 MSP1 (p19 fragment) (Plasmodium falciparum (3D7)).
T1 construct: merozoite surface protein 1 of P. falciparum 3D7, the 19 kDa C-terminal fragment (MSP1-19, p19); Coated on ELISA plates and used in solution in the BLI without avidity; The ELISA methods say only 'recombinant P. falciparum MSP1'; also called MSP1-19; merozoite surface protein 1 (the 1-19 fragment)
T1 chain: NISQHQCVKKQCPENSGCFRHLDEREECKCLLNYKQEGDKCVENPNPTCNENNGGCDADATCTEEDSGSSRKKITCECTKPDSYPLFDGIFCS
Put plainly: ELISA; plates coated with recombinant MSP1, AMA1 or OVA (each 5 µg/ml in PBS); purified recombinant antibodies at a maximum of 5-50 nM with 10-fold serial dilutions, 2 h room temperature or overnight 4°C; HRP anti-human IgG1. The following applies: both partners purified.

B1: MaliM03 m-IgG (antibody, V domains shown)
VH: QVQLQQWGAGLLKPSETLSLTCAVYGGSFSGYYWTWIRQPPGKGLEWIGEINNSGKTNYNPSLKSRVSISIDTSKNQFSLKVTSVTAADTAVYYCARGPQQHLEPPFDYWGHGTLVTVSS
VL: QSVLTQPPSASGTPGQRVTISCSGSNSNIATNYVCWYQQYPGTAPKPLIYRTDQRPSGVPDRFSGSKSGTSASLAISGLRSEDEADYYCATWDDSLSAWVFGGGTKLTVL
notes: VH of MaliM03, as the VH of m1; immunoglobulin gamma-1 heavy chain constant region (vector AbVec-hIgG1) with L309C; human IgM tail piece, 18 amino acids, added to the IgG constant region; as the light chain of m1; Self-assembles into multimers (negative-stain EM); also called multimeric IgG; modified IgG antibody; source: 293T cells, transient transfection, purified from supernatant (HiTrap …)
On to B1, for which the “fold better binding than its monomeric form” value was about 10 fold.
